Reference: patent US20220411504A1 (Janssen / Centocor, published 2022)

Molecular target: T1, human Kallikrein-2 6-His protein (soluble hK2) (human, UniProt P20151 18-261, limits assumed)
T1 construct: The assays say only 'soluble hK2' or 'human KLK2 antigen'; also called KLK2; kallikrein related peptidase 2
Experiment: SPR, bispecific captured by anti-Fc, soluble hK2 injected

T1 sequence (P20151 other isoform, or with tags, fused parts or gaps limits assumed): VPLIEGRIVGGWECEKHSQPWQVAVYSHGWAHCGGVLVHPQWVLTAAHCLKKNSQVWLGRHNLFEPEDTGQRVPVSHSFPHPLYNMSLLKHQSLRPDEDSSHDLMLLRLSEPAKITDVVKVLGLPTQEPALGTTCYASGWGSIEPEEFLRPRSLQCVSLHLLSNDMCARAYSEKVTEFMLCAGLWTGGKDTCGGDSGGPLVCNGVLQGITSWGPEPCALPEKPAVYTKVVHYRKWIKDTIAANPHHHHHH

B1: KL2B242 Fab (arm of a hK2/CD3 bispecific, Table 40) (bispecific antibody)
chain 1: QVQLQESGPGLVKPSETLSLTCTVSGGSISSYYWSWLRQPAGSGLEWIGRLYVSGFTNYNPSLKSRVTLSLDPSRNQLSLKLSSVTAADTAVYYCAGDSGNYWGWFDPWGQGTLVTVSSASTKGPSVFPLAPSSKSTSGGTAALGCLVKDYFPEPVTVSWNSGALTSGVHTFPAVLQSSGLYSLSSVVTVPSSSLGTQTYICNVNHKPSNTKVDKKVEPKSCDKTHTCPPCPAPEAAGGPSVFLFPPKPKDTLMISRTPEVTCVVVSVSHEDPEVKFNWYVDGVEVHNAKTKPREEQYNSTYRVVSVLTVLHQDWLNGKEYKCKVSNKALPAPIEKTISKAKGQPREPQVYVLPPSREEMTKNQVSLLCLVKGFYPSDIAVEWESNGQPENNYLTWPPVLDSDGSFFLYSKLTVDKSRWQQGNVFSCSVMHEALHNHYTQKSLSLSPG
chain 2: SYELTQPPSVSVSPGETASITCSGDQLGENYASWYQQKPGQSPVLVIYQDSKRPSGIPERFSGSNSGNTATLTISGTQALDEADYYCQAWDNSIVVFGGGTKLTVLGQPKAAPSVTLFPPSSEELQANKATLVCLISDFYPGAVTVAWKADSSPVKAGVETTTPSKQSNNKYAASSYLSLTPEQWKSHRSYSCQVTHEGSTVEKTVAPTECS
chain 3: DIQMTQSPSSLSASVGDRVTITCRARQSIGTAIHWYQQKPGKAPKLLIKYASESISGVPSRFSGSGSGTDFTLTISSLQPEDFATYYCQQSGSWPYTFGQGTKLEIKGGSEGKSSGSGSESKSTGGSEVQLVESGGGLVKPGGSLRLSCAASGFTFSRYNMNWVRQAPGKGLEWVSSISTSSNYIYYADSVKGRFTFSRDNAKNSLDLQMSGLRAEDTAIYYCTRGWGPFDYWGQGTLVTVSSEPKSSDKTHTCPPCPAPEAAGGPSVFLFPPKPKDTLMISRTPEVTCVVVSVSHEDPEVKFNWYVDGVEVHNAKTKPREEQYNSTYRVVSVLTVLHQDWLNGKEYKCKVSNKALPAPIEKTISKAKGQPREPQVYVYPPSREEMTKNQVSLTCLVKGFYPSDIAVEWESNGQPENNYKTTPPVLDSDGSFALVSKLTVDKSRWQQGNVFSCSVMHEALHNHYTQKSLSLSPG
Kd: 140 pM
